Legend:
[1] = target: T1, GST alone (Glutathione S-transferase, control) (UniProt P08515 1-218 = GST); assay: GST pull-down of in vitro 35S-labeled protein
T1 construct: Control loaded on glutathione Sepharose beads; also called GST-protein alone

[2] = target: T2, N87A-GILZ, full mouse GILZ in which an Asparagine is mutated in Alanine, in vitro 35S-labeled (mouse, UniProt Q9Z2S7 1-137, [35S]-Methionine label); assay: GST pull-down of in vitro 35S-labeled protein
T2 construct: range 1-137
T2 sequence (looked up): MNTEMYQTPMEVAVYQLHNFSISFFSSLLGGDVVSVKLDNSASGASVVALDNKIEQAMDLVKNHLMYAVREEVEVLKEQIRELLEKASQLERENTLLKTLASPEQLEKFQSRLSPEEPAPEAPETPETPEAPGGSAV

[3] = target: T3, ERK-1 in lysates of murine thymocytes (mouse, UniProt Q63844 2-380); assay: GST pull-down from murine thymocyte lysates, Western blot with α-ERK-1/-2
T3 construct: Detected together with ERK-2 by α-ERK-1/-2 antibodies; also called ERK-1/-2
T3 sequence (Q63844 2-380 limits assumed): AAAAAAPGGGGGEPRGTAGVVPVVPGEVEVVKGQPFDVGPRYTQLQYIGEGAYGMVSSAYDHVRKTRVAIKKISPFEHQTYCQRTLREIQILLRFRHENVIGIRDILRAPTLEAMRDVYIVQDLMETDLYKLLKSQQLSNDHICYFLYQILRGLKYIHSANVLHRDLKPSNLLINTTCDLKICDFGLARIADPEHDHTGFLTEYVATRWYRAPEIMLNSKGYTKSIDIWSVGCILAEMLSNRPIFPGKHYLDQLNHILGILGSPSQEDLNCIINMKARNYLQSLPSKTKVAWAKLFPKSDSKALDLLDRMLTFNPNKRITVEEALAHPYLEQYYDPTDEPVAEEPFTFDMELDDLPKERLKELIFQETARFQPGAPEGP
Procedure: (§1) Extracts were prepared from the indicated cell, treated or untreated with DEX (10 microMolar), as previously described (Ayroldi E et al., 2001). GST or GST fusion proteins, loaded on Sepharose beads, were mixed with cell extracts in binding buffer (NaCl 250 milliMolar, HEPES (ph7.5) (pH 7.5) 50 milliMolar, EDTA 0.5 milliMolar, Nonidet P-40 0.1% (v/v), phenylmethylsulfonyl fluoride (PMSF) 0.2 milliMolar, dithiothreitol (DTT) 1 milliMolar, bovine serum albumin (BSA) 100 μg/ml), heated for 5 minutes at 42° C., incubated for 2 hours at 4° C., washed extensively with binding buffer, resuspended in loading buffer and analysed by SDS-PAGE and Western blot as described above. In the case of murine thymocytes extracts, the incubation with the beads was performed overnight and at 4° C. The α-MEK and α-ERK antibodies (Upstate Biotechnology) were used following manufacturer's instructions.

[4] = target: T4, ERK-2 in lysates of murine thymocytes (mouse, UniProt P63085 2-358); assay: as above
T4 construct: Detected together with ERK-1 by α-ERK-1/-2 antibodies; also called ERK-1/-2
Procedure: as §1

[5] = target: T1, GST alone (Glutathione S-transferase, …); assay: GST pull-down from thymocyte whole cell lysates, Western blot with α-GILZ
Procedure: as §1

[6] = target: T5, GST-Raf-RBD, GST fusion protein comprising the Ras Binding Domain of human Raf (Raf-RBD, residues 1-149) (human, UniProt P04049 1-149); assay: GST pull-down of in vitro 35S-labeled protein
T5 construct: range 1-149; Immobilised on glutathione Sepharose beads; not shown: Glutathione S-transferase (GST) encoded by the pGEX-4T2 plasmid (Pharmacia)

T1 sequence (P08515 whole entry): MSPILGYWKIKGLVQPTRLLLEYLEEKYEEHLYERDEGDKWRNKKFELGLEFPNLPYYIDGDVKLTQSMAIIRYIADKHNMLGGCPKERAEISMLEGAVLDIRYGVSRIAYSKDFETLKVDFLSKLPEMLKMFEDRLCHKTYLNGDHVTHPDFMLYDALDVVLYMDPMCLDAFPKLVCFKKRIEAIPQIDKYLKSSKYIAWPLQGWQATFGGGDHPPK

B1: ΔC-GILZ, GILZ lacking the C-terminal region (first 97 amino acids of mouse GILZ), in vitro 35S-labeled (other)
chain: MNTEMYQTPMEVAVYQLHNFSTSFFSSLLGGDVVSVKLDNSASGASVVALDNKIEQAMDLVKNHLMYAVREEVEVLKEQIRELLEKNSQLERENTLL
modifications: [35S]-methionine isotopic label from in vitro translation; letters unchanged
notes: also called 35S-AC-GILZ
binding result [1]: no binding

B2: Glutathione S-transferase GILZ fusion protein (GST-GILZ), containing entire mouse GILZ (other, UniProt Q9Z2S7 1-137, looked up)
chain: MNTEMYQTPMEVAVYQLHNFSISFFSSLLGGDVVSVKLDNSASGASVVALDNKIEQAMDLVKNHLMYAVREEVEVLKEQIRELLEKNSQLERENTLLKTLASPEQLEKFQSRLSPEEPAPEAPETPETPEAPGGSAV
notes: range 1-137; Immobilised on glutathione Sepharose beads; Prepared as in Ayroldi E et al., 2001; not shown: Glutathione S-transferase (GST) encoded by the pGEX-4T2 plasmid (Pharmacia)
binding result [2]: no binding | binding result [3]: no binding | binding result [4]: no binding

B3: GILZ, endogenous, in whole cell lysates of murine thymocytes (DEX-treated or untreated) (other, mouse, UniProt Q9Z2S7 1-137, looked up)
chain: MNTEMYQTPMEVAVYQLHNFSISFFSSLLGGDVVSVKLDNSASGASVVALDNKIEQAMDLVKNHLMYAVREEVEVLKEQIRELLEKNSQLERENTLLKTLASPEQLEKFQSRLSPEEPAPEAPETPETPEAPGGSAV
notes: also called mGILZ
binding result [5]: no binding

B4: in vitro 35S-labeled full GILZ (full-length mouse GILZ, in vitro translated) (other, UniProt Q9Z2S7 1-137, looked up)
chain: MNTEMYQTPMEVAVYQLHNFSISFFSSLLGGDVVSVKLDNSASGASVVALDNKIEQAMDLVKNHLMYAVREEVEVLKEQIRELLEKNSQLERENTLLKTLASPEQLEKFQSRLSPEEPAPEAPETPETPEAPGGSAV
modifications: [35S]-Methionine label
notes: range 1-137; also called 35S-GILZ; GILZ full-length protein
binding result [1]: no binding

B5: ΔN-GILZ, GILZ lacking the N-terminal region (first 8 amino acids of mGILZ fused with the residues 73-137), in vitro 35S-labeled (other)
chain: MNTEMYQTVEVLKEQIRELLEKNSQLERENTLLKTLASPEQLEKFQSRLSPEEPAPEAPETPETPEAPGGSAV
modifications: [35S]-Methionine label ; [35S]-methionine isotopic label from in vitro translation; letters unchanged
notes: also called DN-GILZ; 35S-ΔN-GILZ
binding result [6]: no binding
